{
  "source": "patent US20110280881A1",
  "about": "“NOVEL ANTI-HSP90 MONOCLONAL ANTIBODY” (RIKEN, priority 2010, published 2011)",
  "key": {"mouse HSP90α": {"tested_on": "mouse HSP90α", "experiment": "Epitope mapping by ELISA with biotinylated overlapping peptides", "type": "binding", "conditions": "12-amino-acid overlapping peptides, antibody 1 μg/ml, OD405", "experimental": "Epitope mapping was performed using biotinylated overlapping peptides. The biotinylated overlapping peptides were prepared as described in a publicly known document (J. Immunological Methods 2002; 267:27-35). The epitope mapping was performed using a library of 12-amino-acid-long synthetic peptides each having an overlap of four amino acids.\nAfter an avidin-coated plate was blocked with BSA, the above-described biotinylated overlapping peptides (1.25-3.75 mg/ml) were added. The plate was incubated at room temperature for 2 hours, after which it was washed with PBS/Tween 20 to remove the unreacted biotinylated overlapping peptides. Each anti-HSP90 monoclonal antibody (1 μg/ml) was added, and the plate was incubated at room temperature for 2 hours. The plate was washed with PBS/Tween 20 to remove the unreacted antibody, after which anti-mouse IgG-ALP (BD Pharmingen, used at a 2000-fold dilution) was added, and the plate was incubated at room temperature for 1 hour. The plate was washed with PBS/Tween 20 to remove the unreacted anti-mouse IgG-ALP, after which a pNPP solution (KPL, 1 mg/ml) was added, and the plate was incubated at room temperature for 3 hours to cause color development. After the color development, the plate was subjected to measurement of OD405 nm. […]"}, "[1]": {"tested_on": "GM-CSF-dependent bone marrow-derived dendritic cells", "experiment": "Cytokine production from bone marrow-derived dendritic cells on immobilized 6H8 antibody", "type": "cell-based", "conditions": "antibody immobilized on 96-well plate, 12 hours", "experimental": "(1) […] of the 6H8 antibody diluted in PBS (10 mg/ml) was added to a 96-well flat plate (Corning Incorporated, product number 3596), and the plate was treated at 4° C. overnight. (2) The plate was washed twice with […] of PBS to remove the excess 6H8 antibody. (3) On day 5 after induction, GM-CSF-dependent bone marrow-derived dendritic cells were added to the plate from (2) at 1×10^5/well and cultured in an incubator at 37° C. with 5% CO2. (4) 12 hours after the start of cultivation, the supernatant was recovered; the amounts of cytokines and chemokines in the supernatant were determined according to a standard protocol using the Bio-Plex suspension array system with 23-Plex Panel (Bio-rad, 171-F11241)."}, "OT-I CD8+ T cells [2]": {"tested_on": "OT-I CD8+ T cells", "experiment": "In vitro cross-presentation assay, DC2.4 cells with OT-I CD8+ T cells, IFNγ", "type": "cell-based, mouse", "experimental": "A cross-presentation assay was performed using each fraction as an antigen. DC2.4 cells were pulsed with 5 μg/ml (30 μg/ml, only for the fraction 33) of each fraction or 1 mg/ml of free OVA for 3 hours. […]\nNext, DC2.4 cells were pulsed with a series of doses of 6H8-OVA (fractions 15 to 19) and free OVA (fraction 33) and incubated along with OT-I CD8^+ T cells and OT-II CD4^+ T cells [splenocytes of an OT-II mouse were recovered, and CD11b-positive cells were removed according to a standard protocol using BD IMag anti mouse CD11b magnetic particles DM (BD Biosciences Pharmingen, 558013); next, CD4-positive cells were purified according to a standard protocol using BD IMag anti mouse CD4 particles DM (BD Biosciences Pharmingen, 551539); the cells obtained were used as the OT-II CD4^+ T cells], and the amount of IFNγ secreted from T cells was measured, whereby the cross-presentation potential of 6H8-OVA was evaluated."}, "OT-II CD4+ T cells": {"tested_on": "OT-II CD4+ T cells", "experiment": "In vivo division of OT-II CD4+ T cells", "design": "species or system mouse", "conditions": "series of doses injected into recipient mice"}, "OT-I CD8+ T cells [3]": {"tested_on": "OT-I CD8+ T cells", "experiment": "In vivo differentiation of transferred OT-I CD8+ T cells into memory T cells (CD44)", "design": "species or system mouse", "conditions": "3 μg tail vein, 96 hours, compared with group that did not receive 6H8-OVA", "experimental": "(1) 2×10^6 CD8^+ cells of an OT-I/CD45.1 mouse were transferred to a C57BL/6 mouse from the tail vein, with 3 μg of 6H8-OVA or PBS administered from the tail vein concurrently. (2) 96 hours later, the mouse spleen was recovered, and 2×10^6 splenocytes were stained with the following antibodies in a 96-well round-bottomed plate for 30 minutes (while cooling on ice).\nPE-anti-mouse/human CD44 (eBioscience: Cat No. 12-0041), concentration: 1 μg/ml, amount used: 100 μl.\nBiotin-anti-CD45.1 (eBioscience: 13-0453), concentration: 2.5 μg/ml, amount used: 100 μl.\n(3) After being washed twice with PBS, the cells were stained with the following antibody for 30 minutes (while cooling on ice).\nStreptavidin-APC (BioLegend: 405207), concentration: 0.2 μg/ml, amount used: 100 μl.\n(4) After being washed twice with Annexin-binding buffer, the cells were stained with FITC-Annexin V using the Annexin V FITC reagent for 10 minutes (while cooling on ice).\n(5) Fluorescence was determined using FACS Canto (BD)."}},
  "data": [
    {"molecule": "6H8: anti-HSP90 monoclonal antibody produced by hybridoma FERM BP-11222; epitope … (antibody) VH: QVQLQQSGPELVKPGASVRISCKASGYTFTSYYIHWVKQRPGQGLEWIGWIYPGNVNTKYNEKFKGKATLTADKSSSTAYMQLSSLTSEDSAVYFCARYGNYPFAYWGQGTLVTVSAAKTTAPSVYPLAPVCGDTTGSSVTLGCLVKGYF VL: DVVMTQTPLSLPVSLGDQASISCRSSQSLVHSNGNTYLHWYLQKPGQSPKLLIYKVSNRFSGVPDRFSGSGSGTDFTLKISRVEAEDLGVYFCSQSTHVPPTFGGGTKLEIKRADAAPTVSIFPPSSEQLTSGGASVVCFLNNFYPKDINVKWKIDGS", "values": [
      {"measurement": "epitope region mapped (amino acid numbers)", "setting": "mouse HSP90α", "result": "HSP90α713-724"},
      {"measurement": "production of IL-1α, IL-1β, IL-2, IL-4, IL-9, IL-10, IL-12(p40), IL-12(p70), IL-13, G-CSF, GM-CSF, KC, MCP-1, MIP-1α, MIP-1β, RANTES", "setting": "[1]", "result": "induced"}
    ]},
    {"molecule": "6H8-OVA: high molecular weight conjugate of the 6H8 antibody and maleimide-activated OVA (conjugate) VH: QVQLQQSGPELVKPGASVRISCKASGYTFTSYYIHWVKQRPGQGLEWIGWIYPGNVNTKYNEKFKGKATLTADKSSSTAYMQLSSLTSEDSAVYFCARYGNYPFAYWGQGTLVTVSAAKTTAPSVYPLAPVCGDTTGSSVTLGCLVKGYF VL: DVVMTQTPLSLPVSLGDQASISCRSSQSLVHSNGNTYLHWYLQKPGQSPKLLIYKVSNRFSGVPDRFSGSGSGTDFTLKISRVEAEDLGVYFCSQSTHVPPTFGGGTKLEIKRADAAPTVSIFPPSSEQLTSGGASVVCFLNNFYPKDINVKWKIDGS GSIGAASMEFCFDVFKELKVHHANENIFYCPIAIMSALAMVYLGAKDSTRTQINKVVRFDKLPGFGDSIEAQCGTSVNVHSSLRDILNQITKPNDVYSFSLASRLYAEERYPILPEYLQCVKELYRGGLEPINFQTAADQARELINSWVESQTNGIIRNVLQPSSVDSQTAMVLVNAIVFKGLWEKAFKDEDTQAMPFRVTEQESKPVQMMYQIGLFRVASMASEKMKILELPFASGTMSMLVLLPDEVSGLEQLESIINFEKLTEWTSSNVMEERKIKVYLPRMKMEEKYNLTSVLMAMGITDVFSSSANLSGISSAESLKISQAVHAAHAEINEAGREVVGSAEAGVDAASVSEEFRADHPFLFCIKHIATNAVLFFGRCVSP", "values": [
      {"measurement": "induction of IFNγ production by OT-I CD8+ T cells", "setting": "OT-I CD8+ T cells [2]; DC2.4 pulsed 3 hours with fractions 15 to 21, less than 5 μg/ml protein", "result": "efficiently induced IFNγ production by CD8^+ T cells"},
      {"measurement": "effectiveness on OT-I CD8+ T cells relative to free OVA", "setting": "OT-I CD8+ T cells [2]; DC2.4 pulsed with series of doses, IFNγ secreted", "result": "at least 100 times"},
      {"measurement": "promotion of the division of OT-II CD4+ T cells", "setting": "OT-II CD4+ T cells", "result": "required a higher dose"},
      {"measurement": "expression level of CD44 on transferred OT-I CD8+ T cells", "setting": "OT-I CD8+ T cells [3]", "result": "increased"}
    ]}
  ]
}
